Reference: patent US20030186281A1, “Modified tetracycline repressor protein compositions and methods of use” (priority 2001, published 2003)
Positions count from the first letter of the chain named. Names and notes keep the numbering of the source.

B1: TetRrev29/25: revTetR(BD) G21- I22- E23- G24S (protein)
chain: MSRLDKSKVINSALELLNEVSLTTRKLAQKLGVEQPTLYWHVKNKRALLDALAVEILARHHDYSLPAAGESWQSFLRNNAMSFRRALLRYRDGAKVHLGTRPDEKQYDTVETQLRFMTENGFSLRDGLYAISAVSHFTLGAVLEQQEHTAALTDRPAAPDENLPPLLREALQIMDSDDGEQAFLHGLESLIRGFEVQLTALLQIV
modifications: Modified tetracycline repressor
notes: revTetR(BD) G21- I22- E23- G24S
B2: TetRrev25/43: revTetR(BD) L17F E19- G24G (protein)
chain: MSRLDKSKVINSALELFNVGIEGLTTRKLAQKLGVEQPTLYWHVKNKRALLDALAVEILARHHDYSLPAAGESWQSFLRNNAMSFRRALLRYRDGAKVHLGTRPDEKQYDTVETQLRFMTENGFSLRDGLYAISAVSHFTLGAVLEQQEHTAALTDRPAAPDENLPPLLREALQIMDSDDGEQAFLHGLESLIRGFEVQLTALLQIV
modifications: Modified tetracycline repressor
notes: revTetR(BD) L17F E19- G24G
B3: TetRrev4/6-27: revTetR(BD) V99R (protein)
chain: MSRLDKSKVINSALELLNEVGIEGLTTRKLAQKLGVEQPTLYWHVKNKRALLDALAVEILARHHDYSLPAAGESWQSFLRNNAMSFRRALLRYRDGAKRHLGTRPDEKQYDTVETQLRFMTENGFSLRDGLYAISAVSHFTLGAVLEQQEHTAALTDRPAAPDENLPPLLREALQIMDSDDGEQAFLHGLESLIRGFEVQLTALLQIV
modifications: Modified tetracycline repressor
notes: revTetR(BD) V99R
B4: TetRrev28/26: revTetR(BD) L14T N18Y G21G I22F (protein)
chain: B3 chain with L14T, N18Y, I22F, R99V
modifications: Modified tetracycline repressor
notes: revTetR(BD) L14T N18Y G21G I22F
B5: TetRrev28/40: revTetR(BD) L14S N18Y I22F L25L (protein)
chain: B3 chain with L14S, N18Y, I22F, R99V
modifications: Modified tetracycline repressor
notes: revTetR(BD) L14S N18Y I22F L25L
B6: TetRrev28/27: revTetR(BD) L17G I22M (protein)
chain: B3 chain with L17G, I22M, R99V
modifications: Modified tetracycline repressor
notes: revTetR(BD) L17G I22M
B7: TetRrev29/24: revTetR(BD) E15V L17F N18Y I22M E23K (protein)
chain: B3 chain with E15V, L17F, N18Y, I22M, E23K, R99V
modifications: Modified tetracycline repressor
notes: revTetR(BD) E15V L17F N18Y I22M E23K
B8: TetRrev28/16: revTetR(BD) L14L E15A L17G L25V (protein)
chain: B3 chain with E15A, L17G, L25V, R99V
modifications: Modified tetracycline repressor
notes: revTetR(BD) L14L E15A L17G L25V
B9: TetRrev28/30: revTetR(BD) V20G G21A I22I E23G (protein)
chain: B3 chain with V20G, G21A, E23G, R99V
modifications: Modified tetracycline repressor
notes: revTetR(BD) V20G G21A I22I E23G
B10: TetRrev28/46: revTetR(BD) A13A V20G G21R I22N G24G (protein)
chain: B3 chain with V20G, G21R, I22N, R99V
modifications: Modified tetracycline repressor
notes: revTetR(BD) A13A V20G G21R I22N G24G
B11: TetRrev28/23: revTetR(BD) A13A L14S N18K E23V (protein)
chain: B3 chain with L14S, N18K, E23V, R99V
modifications: Modified tetracycline repressor
notes: revTetR(BD) A13A L14S N18K E23V
B12: TetRrev28/36: revTetR(BD) N18I E19G V20G E23V (protein)
chain: B3 chain with N18I, E19G, V20G, E23V, R99V
modifications: Modified tetracycline repressor
notes: revTetR(BD) N18I E19G V20G E23V
B13: TetRrev1/34: revTetR(BD) L17S E23K (protein)
chain: B3 chain with L17S, E23K, R99V
modifications: Modified tetracycline repressor
notes: revTetR(BD) L17S E23K
B14: TetRrev22/5: revTetR(BD) E15V L17A E19D (protein)
chain: B3 chain with E15V, L17A, E19D, R99V
modifications: Modified tetracycline repressor
notes: revTetR(BD) E15V L17A E19D
B15: TetRrev28/31: revTetR(BD) A13A V20G G21R I22N G24G (protein)
chain: B3 chain with V20G, G21R, I22N, R99V
modifications: Modified tetracycline repressor
notes: as for B10
B16: TetRrev29/9: revTetR(BD) L17V N18Y G21G I22T (protein)
chain: B3 chain with L17V, N18Y, I22T, R99V
modifications: Modified tetracycline repressor
notes: revTetR(BD) L17V N18Y G21G I22T
B17: TetRrev28/41: revTetR(BD) L17L N18D V20R I22N (protein)
chain: B3 chain with N18D, V20R, I22N, R99V
modifications: Modified tetracycline repressor
notes: revTetR(BD) L17L N18D V20R I22N
B18: TetRrev19/48: revTetR(BD) N18K E19D V20L I22N E23A (protein)
chain: B3 chain with N18K, E19D, V20L, I22N, E23A, R99V
modifications: Modified tetracycline repressor
notes: revTetR(BD) N18K E19D V20L I22N E23A
B19: TetRrev28/8: revTetR(BD) L14S N18Y I22F L25L (protein)
chain: B3 chain with L14S, N18Y, I22F, R99V
modifications: Modified tetracycline repressor
notes: as for B5
B20: TetRrev28/49: revTetR(BD) N18Y V20D I22T (protein)
chain: B3 chain with N18Y, E19D, I22T, R99V
modifications: Modified tetracycline repressor
notes: revTetR(BD) N18Y V20D I22T
B21: TetRrev28/48: revTetR(BD) N18Y V20D I22T W43S (protein)
chain: B3 chain with N18Y, V20D, I22T, W43S, R99V
modifications: Modified tetracycline repressor
notes: revTetR(BD) N18Y V20D I22T W43S
B22: TetRrev3/38: revTetR(BD) L17H I22F E23G (protein)
chain: B3 chain with L17H, I22F, E23G, R99V
modifications: Modified tetracycline repressor
notes: revTetR(BD) L17H I22F E23G
B23: TetRrev29/17: revTetR(BD) L17S E23D (protein)
chain: B3 chain with L17S, E23D, R99V
modifications: Modified tetracycline repressor
notes: revTetR(BD) L17S E23D

Tested on: tet operator sequence
Assay: β-galactosidase activity of a tetracycline-regulated promoter in transformed E. coli with revTetR, in the presence and absence of anhydrotetracycline (atc)
Format: cell-based, Escherichia coli
Conditions: for β-Galactosidase Activity, Cultured Without ATC: RevTetR isolate cultured in the absence of anhydrotetracycline (ATC); for β-Galactosidase Activity, Cultured With ATC: RevTetR isolate cultured in the presence of anhydrotetracycline (ATC)
Summary of the method: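 TetR(BD) chimera mutants (TetR(B) residues 1–50, TetR(D) 51–208) expressed in E. coli regulating a tet operator-controlled lacZ. β-Galactosidase measured in Miller units at 28 °C and 37 °C with and without anhydrotetracycline; reported as percent of maximal expression without Tet repressor.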

| Molecule | β-Galactosidase Activity, Cultured Without ATC | β-Galactosidase Activity, Cultured With ATC |
| --- | --- | --- |
| B1 | 92.9327 | 3.112 |
| B2 | 99.1241 | 1.7535 |
| B3 | 108 | 49 |
| B4 | 89.3918 | 3.8006 |
| B5 | 91 .691 | 3.4834 |
| B6 | 95.0152 | 1.6907 |
| B7 | 85.5708 | 7.9819 |
| B8 | 96.3269 | 0.9453 |
| B9 | 55.1783 | 3.7384 |
| B10 | 95.9627 | 1.1482 |
| B11 | 92.2055 | 2.9867 |
| B12 | 65.5335 | 1.0579 |
| B13 | 79.3141 | 0.9226 |
| B14 | 92.312 | 0.9755 |
| B15 | 99.8749 | 1.1121 |
| B16 | 74.4357 | 11.772 |
| B17 | 15.4643 | 5.6333 |
| B18 | 79.9581 | 1.1143 |
| B19 | 98.6289 | 4.4123 |
| B20 | 62.5137 | 8.2716 |
| B21 | 99.3107 | 1.1587 |
| B22 | 97.043 | 1.8287 |
| B23 | 44.6409 | 1.7738 |
